Laboratory results as given in US20260217804A1 (BIOARCTIC, published 2026).

B1: Pyr7.1 (antibody, IgG2c, V domains shown)
VH: KVQLQQSGPELVKPGTSIKMSCKTSGYSFTGYTLNWVKQSPGKNPEWIGLINPYNGITTYNPKFMGKATLTVDKSSSTAYMELLSLTSEDSAVYYCSREGNWEGVYWGQGTLVTVSA
VL: not shown
notes: also called recombinant antibody Pyr7.1; hybridoma clone Pyr7.1
B2: Pyr12.2 (antibody, IgG2c, V domains shown)
VH: EVQLQQSGPELVKPGTSIKMSCKASGYSFTGFTMNWVKQSHGKNLEWIGLINPYNGVTTYNQKFKGKATITVDKSSRTAYMELLSLTYEDSAVYYCTREGNWEGVYWGQGTPVTVSA
VL: EVVLTQTPLTLSVTIGQSASISCKSSQSLLDSNGKTYLHWFLLRPGQSPKRLIYLVSILDSGVPDRFTGSGSGTDFTLKISRVEAEDLGIYYCVQGTHFPFTFGSGTKLEIKR
notes: also called recombinant antibody Pyr12.2; hybridoma clone Pyr12.2
B3: H2L7 (antibody, human IgG1, kappa, V domains shown)
VH: EVQLVQSGAEVKKPGASVRLSCKASGYSFTGFTMNWVRQALGQGLEWMGLINPYNGVTTYNQKFKGRLTMTRDMSTRTVYMDLSSLRYEDTAVYYCTREGNWEGVYWGQGTLVTVSS
VL: EIVLTQSPLSLSVTLGQSASISCRSSQSLLDSNGKTYLHWFILRPGQSPRRLIYLVSILDSGVPDRFSGSGSGTDFTLKISRVEAEDVGVYYCVQGTHFPFTFGSGTKLEIKR
notes: Humanized IgG1/kappa, expressed in CHO cells; also called humanized Pyr12.2 variant H2L7; VH2/VL7
B4: H2L7-K12V/R71A (antibody, human IgG1, kappa)
heavy: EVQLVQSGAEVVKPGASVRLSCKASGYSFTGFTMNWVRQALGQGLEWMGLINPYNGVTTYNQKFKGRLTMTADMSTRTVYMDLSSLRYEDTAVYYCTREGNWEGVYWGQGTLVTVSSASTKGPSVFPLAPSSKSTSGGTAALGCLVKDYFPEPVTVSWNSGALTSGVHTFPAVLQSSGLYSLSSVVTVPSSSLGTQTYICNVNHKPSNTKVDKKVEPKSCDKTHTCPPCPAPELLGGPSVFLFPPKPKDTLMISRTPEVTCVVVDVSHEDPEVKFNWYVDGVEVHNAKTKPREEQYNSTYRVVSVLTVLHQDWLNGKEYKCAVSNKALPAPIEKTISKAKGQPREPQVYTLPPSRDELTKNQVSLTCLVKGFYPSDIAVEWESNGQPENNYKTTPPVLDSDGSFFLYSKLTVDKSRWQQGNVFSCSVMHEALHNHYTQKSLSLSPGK
light: EIVLTQSPLSLSVTLGQSASISCRSSQSLLDSNGKTYLHWFILRPGQSPRRLIYLVSILDSGVPDRFSGSGSGTDFTLKISRVEAEDVGVYYCVQGTHFPFTFGSGTKLEIKRTVAAPSVFIFPPSDEQLKSGTASVVCLLNNFYPREAKVQWKVDNALQSGNSQESVTEQDSKDSTYSLSSTLTLSKADYEKHKVYACEVTHQGLSSPVTKSFNRGEC
notes: Variant of H2L7 with changes in VH only
B5: H2L7-K12V/R71A/R83T (antibody, human IgG1, kappa)
heavy: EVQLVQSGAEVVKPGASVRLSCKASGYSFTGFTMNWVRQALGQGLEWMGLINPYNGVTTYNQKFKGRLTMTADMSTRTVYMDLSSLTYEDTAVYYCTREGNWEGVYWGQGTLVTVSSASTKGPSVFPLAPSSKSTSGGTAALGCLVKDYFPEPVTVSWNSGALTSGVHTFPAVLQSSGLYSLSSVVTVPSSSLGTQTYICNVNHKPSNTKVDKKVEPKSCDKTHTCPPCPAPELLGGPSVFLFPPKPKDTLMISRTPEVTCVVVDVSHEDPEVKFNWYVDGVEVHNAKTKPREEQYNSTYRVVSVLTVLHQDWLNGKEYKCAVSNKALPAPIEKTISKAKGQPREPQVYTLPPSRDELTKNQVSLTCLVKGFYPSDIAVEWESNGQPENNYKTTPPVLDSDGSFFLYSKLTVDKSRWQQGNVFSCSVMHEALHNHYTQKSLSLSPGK
light: EIVLTQSPLSLSVTLGQSASISCRSSQSLLDSNGKTYLHWFILRPGQSPRRLIYLVSILDSGVPDRFSGSGSGTDFTLKISRVEAEDVGVYYCVQGTHFPFTFGSGTKLEIKRTVAAPSVFIFPPSDEQLKSGTASVVCLLNNFYPREAKVQWKVDNALQSGNSQESVTEQDSKDSTYSLSSTLTLSKADYEKHKVYACEVTHQGLSSPVTKSFNRGEC
notes: as for B4
B6: H2L7-K12V/R83T (antibody, human IgG1, kappa, V domains shown)
VH: EVQLVQSGAEVVKPGASVRLSCKASGYSFTGFTMNWVRQALGQGLEWMGLINPYNGVTTYNQKFKGRLTMTRDMSTRTVYMDLSSLTYEDTAVYYCTREGNWEGVYWGQGTLVTVSS
VL: EIVLTQSPLSLSVTLGQSASISCRSSQSLLDSNGKTYLHWFILRPGQSPRRLIYLVSILDSGVPDRFSGSGSGTDFTLKISRVEAEDVGVYYCVQGTHFPFTFGSGTKLEIKR
notes: as for B4
B7: H2L7-R71A/R83T (antibody, human IgG1, kappa)
heavy: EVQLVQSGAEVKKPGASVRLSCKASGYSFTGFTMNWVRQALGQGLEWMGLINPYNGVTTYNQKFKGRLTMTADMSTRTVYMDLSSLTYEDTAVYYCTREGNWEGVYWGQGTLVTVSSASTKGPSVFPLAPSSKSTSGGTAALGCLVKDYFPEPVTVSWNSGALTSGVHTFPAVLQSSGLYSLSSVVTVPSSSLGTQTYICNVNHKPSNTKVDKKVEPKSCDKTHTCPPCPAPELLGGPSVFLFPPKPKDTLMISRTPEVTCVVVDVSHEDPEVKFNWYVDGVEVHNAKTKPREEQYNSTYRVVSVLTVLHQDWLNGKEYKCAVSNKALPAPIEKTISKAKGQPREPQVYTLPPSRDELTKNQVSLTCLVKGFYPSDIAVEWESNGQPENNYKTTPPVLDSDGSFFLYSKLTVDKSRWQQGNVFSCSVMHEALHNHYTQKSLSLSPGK
light: EIVLTQSPLSLSVTLGQSASISCRSSQSLLDSNGKTYLHWFILRPGQSPRRLIYLVSILDSGVPDRFSGSGSGTDFTLKISRVEAEDVGVYYCVQGTHFPFTFGSGTKLEIKRTVAAPSVFIFPPSDEQLKSGTASVVCLLNNFYPREAKVQWKVDNALQSGNSQESVTEQDSKDSTYSLSSTLTLSKADYEKHKVYACEVTHQGLSSPVTKSFNRGEC
notes: as for B4
B8: AβpE11-28 monomer (peptide, UniProt P05067 682-699, looked up)
peptide: EVHHQKLVFFAEDVGSNK
modifications: pyroglutamate (pE) at position 11, the N-terminus
notes: range 11-28; The range counts on Aβ numbering, not on APP
B9: H9L8 (antibody, human IgG1, kappa, V domains shown)
VH: QVQLVQSGPEVKKPGSSVKVSCKASGYSFTGFTMNWVRQTPGKGLEWIGLINPYNGVTTYNQKFKGRVTITADESTRTAYMELLSLTYEDTAVYYCTREGNWEGVYWGQGTPVTVSA
VL: EVVLTQSPLSISVTLGQSASISCRSSQSLLDSNGKTYLHWFILRPGQSPRRLIYLVSILDSGIPDRFSGSGSGTDFTLKISRVEAEDVGVYYCVQGTHFPFTFGGGTKLEIKR
notes: Humanized IgG1/kappa, expressed in CHO cells; also called humanized Pyr12.2 variant H9L8; VH9/VL8
B10: H2L7-R71A (antibody, human IgG1, kappa)
heavy: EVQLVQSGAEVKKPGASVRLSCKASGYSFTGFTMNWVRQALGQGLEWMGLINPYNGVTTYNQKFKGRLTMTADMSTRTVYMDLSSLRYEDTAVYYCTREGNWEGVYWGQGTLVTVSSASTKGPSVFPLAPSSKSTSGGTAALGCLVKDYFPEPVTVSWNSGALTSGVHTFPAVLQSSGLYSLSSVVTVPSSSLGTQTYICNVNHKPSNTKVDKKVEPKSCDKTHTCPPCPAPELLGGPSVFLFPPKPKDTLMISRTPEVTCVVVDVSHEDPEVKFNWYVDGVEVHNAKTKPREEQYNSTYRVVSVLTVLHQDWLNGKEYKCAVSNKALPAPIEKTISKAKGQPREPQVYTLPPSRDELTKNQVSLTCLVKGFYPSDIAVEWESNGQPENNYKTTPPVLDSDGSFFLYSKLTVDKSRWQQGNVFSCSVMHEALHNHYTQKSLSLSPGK
light: EIVLTQSPLSLSVTLGQSASISCRSSQSLLDSNGKTYLHWFILRPGQSPRRLIYLVSILDSGVPDRFSGSGSGTDFTLKISRVEAEDVGVYYCVQGTHFPFTFGSGTKLEIKRTVAAPSVFIFPPSDEQLKSGTASVVCLLNNFYPREAKVQWKVDNALQSGNSQESVTEQDSKDSTYSLSSTLTLSKADYEKHKVYACEVTHQGLSSPVTKSFNRGEC
notes: Variant of H2L7 with a change in VH only

Key:
Aβ1-42 monomer = molecular target: T1, Aβ1-42 monomer (UniProt P05067 672-713); test: capture ELISA: plate coated with rabbit anti-Aβ42, peptide monomer captured, hybridoma supernatant, anti-mouse IgG-HRP, OD450 (Example 1)
T1 construct: range 1-42; The range counts on Aβ numbering, not on APP; also called monomeric Aβ1-42

Aβ2-42 monomer = molecular target: T2, Aβ2-42 monomer (UniProt P05067 673-713); test: as above
T2 construct: range 2-42; The range counts on Aβ numbering, not on APP

Aβ1-40 monomer = molecular target: T3, Aβ1-40 monomer (UniProt P05067 672-711); test: inhibition ELISA
T3 construct: range 1-40
Method: (§1) The humanized antibodies were incubated at a fixed concentration (0.5 μg/ml) with titrating concentrations of the different Aβ antigens. […] The samples were incubated on the plate for 25 min without shaking followed by washing, incubation with detection antibody, another washing step and finally incubation with alkaline phosphatase substrate.

AβpE11-40 monomer = molecular target: T4, AβpE11-40 monomer (UniProt P05067 682-711, pyroglutamate (pE) at position 11, the N-terminus); test: inhibition ELISA
T4 construct: range 11-40; The range counts on Aβ numbering, not on APP
T4 peptide (looked up): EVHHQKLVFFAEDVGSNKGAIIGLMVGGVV
Method: as §1

Aβ1-28 monomer = molecular target: T5, Aβ1-28 monomer (UniProt P05067 672-699); test: inhibition ELISA
T5 construct: range 1-28; The range counts on Aβ numbering, not on APP
Method: as §1

AβpE3-28 monomer = molecular target: T6, AβpE3-28 monomer (UniProt P05067 674-699, pyroglutamate (pE) at position 3, the N-terminus); test: inhibition ELISA
T6 construct: range 3-28; The range counts on Aβ numbering, not on APP
Method: as §1

Aβ3-28 monomer = molecular target: T7, Aβ3-28 monomer (UniProt P05067 674-699); test: inhibition ELISA
T7 construct: range 3-28; The range counts on Aβ numbering, not on APP
Method: as §1

Aβ4-28 monomer = molecular target: T8, Aβ4-28 monomer (UniProt P05067 675-699); test: inhibition ELISA
T8 construct: range 4-28; The range counts on Aβ numbering, not on APP
Method: as §1

Aβ2-28 monomer = molecular target: T9, Aβ2-28 monomer (UniProt P05067 673-699); test: inhibition ELISA
T9 construct: range 2-28; The range counts on Aβ numbering, not on APP
Method: as §1

Aβ5-28 monomer = molecular target: T10, Aβ5-28 monomer (UniProt P05067 676-699); test: inhibition ELISA
T10 construct: range 5-28; The range counts on Aβ numbering, not on APP
Method: as §1

AβpE11-28 monomer = molecular target: B8; test: inhibition ELISA
Method: as §1

Aβ1-42 protofibrils = molecular target: T11, Aβ1-42 protofibrils (UniProt P05067 672-713); test: inhibition ELISA
T11 construct: range 1-42; Soluble aggregates of Aβ1-42; The range counts on Aβ numbering, not on APP
Method: as §1

AβpE3-40 monomer = molecular target: T12, AβpE3-40 monomer (UniProt P05067 674-711, pyroglutamate (pE) at position 3, the N-terminus); test: SPR (Biacore 8K), antibody immobilised on CM5, monomer injected, 1:1 model
T12 construct: range 3-40; also called monomeric AβpE3-40
Method: For the measurements, 5 μg/ml of […] antibody was immobilized on the chip. The monomer was then injected over the chip using a 2-fold dilution in five steps starting at 250 nM, using 2 min injection of every […] concentration and a 20 min dissociation time. Regeneration of the surface between cycles was done by injecting 30 μl 3 M MgCl₂. The binding data was fitted to a 1:1 interaction model.
In all SPR experiments, 1×HBS-EP+ (Cytiva, cat. no. BR100669) was used to dilute antibodies and target antigens. Experiments were performed at 25° C.
Affinity evaluation and Ko determination by surface plasmon resonance: Binding interactions between antigens and antibodies were evaluated by SPR using a Biacore 8K instrument (Cytiva) according to standard procedures.

H9L8 = molecular target: B9; test: inhibition ELISA: antigen in solution titrated, antibody fixed (0.5 µg/ml), AβpE3-40 coat
Method: as §1

H2L7 [1] = molecular target: B3; test: as above
Method: as §1

H2L7-K12V/R71A = molecular target: B4; test: inhibition ELISA as in Example 6: antigen in solution titrated, antibody fixed, AβpE3-40 coat
Method: as §1

H2L7-K12V/R83T = molecular target: B6; test: as above
Method: as §1

H2L7 [2] = molecular target: B3; test: as above
Method: as §1

Chain of H2L7-K12V/R71A (heavy, as listed by the source, chain 1 of 2, one chain of several): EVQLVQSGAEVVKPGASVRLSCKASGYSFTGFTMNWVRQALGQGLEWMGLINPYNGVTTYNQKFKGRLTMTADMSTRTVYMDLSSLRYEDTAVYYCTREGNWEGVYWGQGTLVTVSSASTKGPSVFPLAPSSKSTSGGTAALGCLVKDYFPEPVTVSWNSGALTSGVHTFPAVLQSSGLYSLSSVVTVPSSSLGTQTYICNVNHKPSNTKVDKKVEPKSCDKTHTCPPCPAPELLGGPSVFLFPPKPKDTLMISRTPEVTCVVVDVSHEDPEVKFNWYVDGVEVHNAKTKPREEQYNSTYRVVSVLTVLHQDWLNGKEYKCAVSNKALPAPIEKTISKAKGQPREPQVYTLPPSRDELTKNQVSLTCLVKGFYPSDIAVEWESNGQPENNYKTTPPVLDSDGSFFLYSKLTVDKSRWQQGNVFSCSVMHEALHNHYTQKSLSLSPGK

Binder	binding result (Aβ1-40 monomer)	binding result (AβpE3-28 monomer)	binding result (Aβ3-28 monomer)	binding result (Aβ1-42 protofibrils)	other results
B1	no binding (tested: 5 µM)				binding result (Aβ1-42 monomer): no binding (tested: no concentration on the sheet); binding result (Aβ2-42 monomer): no binding (tested: no concentration on the sheet); binding result (AβpE11-40 monomer): no binding (tested: 5 µM)
B2	no binding (tested: 5 µM)				binding result (Aβ1-42 monomer): no binding (tested: no concentration on the sheet); binding result (Aβ2-42 monomer): no binding (tested: no concentration on the sheet); binding result (AβpE11-40 monomer): no binding (tested: 5 µM)
B3	no binding (tested: 12.5 µM)	binds	binds	no binding (tested: 500 nM)	binding result (Aβ1-28 monomer): no binding (tested: 12500 nM); binding result (Aβ4-28 monomer): no binding (tested: 12500 nM); binding result (Aβ2-28 monomer): no binding (tested: 12500 nM); binding result (Aβ5-28 monomer): no binding (tested: 12500 nM); binding result (AβpE11-28 monomer): no binding (tested: 12500 nM)
B4	no binding (tested: 500 nM)	binds	binds	no binding (tested: 132 nM)	
B5	no binding (tested: 500 nM)			no binding (tested: 132 nM)	
B6	no binding (tested: 500 nM)	binds	binds	no binding (tested: 132 nM)	
B7	no binding (tested: 500 nM)			no binding (tested: 132 nM)	Kd (AβpE3-40 monomer): 0.00462 µM; koff (AβpE3-40 monomer): 0.000225 s⁻¹; kon (AβpE3-40 monomer): 50100 M⁻¹ s⁻¹
B8					IC50 (H9L8): > 12.5 µM; IC50 (H2L7 [1]): > 12.5 µM; IC50 (H2L7-K12V/R71A): > 12.5 µM; IC50 (H2L7-K12V/R83T): > 12.5 µM; IC50 (H2L7 [2]): > 12.5 µM
B9	no binding (tested: 12.5 µM)	binds	binds	no binding (tested: 500 nM)	binding result (Aβ1-28 monomer): no binding (tested: 12.5 µM); binding result (Aβ4-28 monomer): no binding (tested: 12.5 µM); binding result (Aβ2-28 monomer): no binding (tested: 12.5 µM); binding result (Aβ5-28 monomer): no binding (tested: 12.5 µM); binding result (AβpE11-28 monomer): no binding (tested: 12.5 µM)
B10	no binding (tested: 500 nM)			no binding (tested: 132 nM)	
